Measurements as given in patent US20050095678A1.

Target: rat α1B+β1b calcium channel (N-type calcium channel α1B subunit coexpressed with β1b subunit) (rat) (UniProt Q02294)
Experiment: cell-based or functional assay

rat α1B+β1b calcium channel (N-type calcium channel α1B subunit coexpressed with β1b subunit) (rat), sequence (Q02294 whole entry, chain 1 of 2): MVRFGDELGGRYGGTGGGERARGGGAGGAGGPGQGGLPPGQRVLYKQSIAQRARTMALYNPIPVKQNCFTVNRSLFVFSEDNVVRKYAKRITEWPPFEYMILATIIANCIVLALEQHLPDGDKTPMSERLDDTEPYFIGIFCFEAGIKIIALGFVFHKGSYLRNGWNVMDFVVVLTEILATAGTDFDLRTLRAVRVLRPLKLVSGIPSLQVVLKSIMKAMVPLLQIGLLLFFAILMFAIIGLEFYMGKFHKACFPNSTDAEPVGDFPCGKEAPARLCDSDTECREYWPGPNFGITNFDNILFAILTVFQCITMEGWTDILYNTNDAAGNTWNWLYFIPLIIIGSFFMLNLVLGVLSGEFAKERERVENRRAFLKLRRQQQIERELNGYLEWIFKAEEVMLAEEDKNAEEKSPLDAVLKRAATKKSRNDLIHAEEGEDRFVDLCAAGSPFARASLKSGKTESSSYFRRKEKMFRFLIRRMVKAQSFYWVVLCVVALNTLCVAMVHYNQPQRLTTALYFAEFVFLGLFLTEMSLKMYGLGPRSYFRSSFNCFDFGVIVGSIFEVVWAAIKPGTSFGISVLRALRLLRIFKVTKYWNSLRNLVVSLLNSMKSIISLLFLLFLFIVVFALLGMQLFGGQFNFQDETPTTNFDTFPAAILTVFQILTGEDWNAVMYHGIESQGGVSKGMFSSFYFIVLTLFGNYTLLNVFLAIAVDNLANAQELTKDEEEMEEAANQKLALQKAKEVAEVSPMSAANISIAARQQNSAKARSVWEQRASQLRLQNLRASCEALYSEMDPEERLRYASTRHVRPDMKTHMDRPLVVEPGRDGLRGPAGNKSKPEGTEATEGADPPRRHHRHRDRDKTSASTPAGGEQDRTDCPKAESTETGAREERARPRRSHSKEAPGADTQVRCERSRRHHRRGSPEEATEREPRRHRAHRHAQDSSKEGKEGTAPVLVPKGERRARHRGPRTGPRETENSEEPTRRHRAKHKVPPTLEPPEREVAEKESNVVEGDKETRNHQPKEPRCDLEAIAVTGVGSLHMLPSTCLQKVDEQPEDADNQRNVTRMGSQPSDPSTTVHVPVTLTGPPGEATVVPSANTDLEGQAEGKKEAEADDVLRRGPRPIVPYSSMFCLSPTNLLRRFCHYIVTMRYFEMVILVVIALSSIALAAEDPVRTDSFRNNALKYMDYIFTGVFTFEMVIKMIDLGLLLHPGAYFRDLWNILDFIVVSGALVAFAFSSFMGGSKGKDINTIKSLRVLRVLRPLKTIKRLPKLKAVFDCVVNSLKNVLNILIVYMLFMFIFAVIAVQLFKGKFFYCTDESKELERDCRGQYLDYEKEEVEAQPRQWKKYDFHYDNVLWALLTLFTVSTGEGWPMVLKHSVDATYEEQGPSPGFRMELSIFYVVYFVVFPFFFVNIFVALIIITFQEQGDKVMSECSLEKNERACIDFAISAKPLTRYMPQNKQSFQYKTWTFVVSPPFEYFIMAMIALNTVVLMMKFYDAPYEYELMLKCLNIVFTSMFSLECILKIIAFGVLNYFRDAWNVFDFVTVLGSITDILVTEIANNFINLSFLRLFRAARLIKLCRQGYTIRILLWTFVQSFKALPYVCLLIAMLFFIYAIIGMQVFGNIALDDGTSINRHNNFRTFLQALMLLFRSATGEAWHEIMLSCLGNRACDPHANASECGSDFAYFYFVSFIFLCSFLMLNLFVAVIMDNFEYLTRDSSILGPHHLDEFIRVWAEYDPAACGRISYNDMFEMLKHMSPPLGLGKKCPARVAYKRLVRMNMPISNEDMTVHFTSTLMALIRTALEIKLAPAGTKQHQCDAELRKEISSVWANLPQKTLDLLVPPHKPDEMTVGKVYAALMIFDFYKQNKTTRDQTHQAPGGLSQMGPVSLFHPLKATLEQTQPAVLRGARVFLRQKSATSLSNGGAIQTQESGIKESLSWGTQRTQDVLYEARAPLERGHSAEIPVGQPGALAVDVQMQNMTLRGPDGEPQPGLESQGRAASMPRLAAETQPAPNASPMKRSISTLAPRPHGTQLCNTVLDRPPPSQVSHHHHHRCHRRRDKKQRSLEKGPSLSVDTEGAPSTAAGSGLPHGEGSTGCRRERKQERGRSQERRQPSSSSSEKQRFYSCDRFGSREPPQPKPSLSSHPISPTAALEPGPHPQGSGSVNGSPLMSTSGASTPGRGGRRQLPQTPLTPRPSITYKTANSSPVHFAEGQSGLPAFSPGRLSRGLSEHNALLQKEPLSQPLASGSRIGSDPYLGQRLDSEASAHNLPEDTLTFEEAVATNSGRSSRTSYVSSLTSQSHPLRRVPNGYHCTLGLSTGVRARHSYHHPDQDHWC
rat α1B+β1b calcium channel (N-type calcium channel α1B subunit coexpressed with β1b subunit) (rat), sequence (P54283 whole entry, chain 2 of 2, further chain): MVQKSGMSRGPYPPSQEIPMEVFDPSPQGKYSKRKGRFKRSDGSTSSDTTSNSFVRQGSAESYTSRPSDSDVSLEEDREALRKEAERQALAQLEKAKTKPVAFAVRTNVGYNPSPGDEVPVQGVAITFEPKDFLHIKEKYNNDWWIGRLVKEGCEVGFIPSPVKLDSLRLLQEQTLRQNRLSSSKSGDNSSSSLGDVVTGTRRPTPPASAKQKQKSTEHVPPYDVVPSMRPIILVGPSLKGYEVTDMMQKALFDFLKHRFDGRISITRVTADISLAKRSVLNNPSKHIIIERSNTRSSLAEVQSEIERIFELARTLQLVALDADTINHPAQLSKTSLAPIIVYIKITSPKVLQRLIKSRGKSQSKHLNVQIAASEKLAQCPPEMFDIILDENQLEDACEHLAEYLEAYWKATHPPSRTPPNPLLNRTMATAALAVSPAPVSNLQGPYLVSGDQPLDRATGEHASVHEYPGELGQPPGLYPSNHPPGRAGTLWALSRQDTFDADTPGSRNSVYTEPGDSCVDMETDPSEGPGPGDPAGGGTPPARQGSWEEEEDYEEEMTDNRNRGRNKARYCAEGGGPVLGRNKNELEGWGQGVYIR

“rat brain α2δ-2 calcium channel subunit (from UniProt Q8CFG6 19-1157)” gave an average current density (Ipeak/cell capacitance), whole-cell patch clamp, fold increase on coexpression of 4 fold.
